One data set has as its system phage Φ12γ3. The data set can be described thus: Liquid anti-phage infection, PFU counts over time. Format: cell-based, Staphylococcus aureus RN4220. How it is done: To obtain CFU and PFU counts over time from cultures infected with phage, RN4220 cultures harbouring various pCRISPRs were launched overnight, diluted 1:100, and outgrown for about one hour. Cells were then infected with phage Φ12γ3 at an MOI of 10, and an aliquot was taken shortly after to obtain PFUs at time 0. The cultures were then incubated further, with aliquots taken at 1 and 4 hours.

The subject of the next data set is ΦX174 ssDNA. The data set can be described thus: Next-generation sequencing of ssDNA degradation products (ΦX174). Format: biochemical. How it is done: To assess the ssDNA cleavage patterns of CARD1, 2 ug of ΦX174 virion DNA (New England Biolabs) or M13 ssDNA (M13mp18) (New England Biolabs) was first digested by 250 nM CARD1 with 2.5 uM of cA4 in a buffer consisting of 20 mM Tris pH 7.5, 150 mM NaCl, 1 mM DTT, and 5 mM MnCl2. At the specified time points, the reaction was quenched by adding 25 mM of EDTA. Half the reaction was visualized by agarose gel electrophoresis. The remaining digestion products from the 2 hour timepoint were purified by phenol chloroform extraction.
Without further fragmentation, the purified digested DNA was subjected to the Accel-NGS 1S Plus DNA Library Kit (Swift Biosciences), proceeding according to the manufacturer's protocol, using a 1.5× ratio of magnetic beads (AMPure XP beads by Beckman Coulter) to also include small DNA fragments. One of the library preparation steps involves the addition of on average 8 nucleotides to the 3′ end of the DNA. The 5′ end of the input DNA molecules remains unchanged. Paired-end sequencing was performed on an Illumina MiSeq. The 5′ end of each read R1 represents the start of a DNA molecule, and thus a CARD1 cut site. Using a custom python script, the location of 7,020,067 ΦX174 reads (mapping to Genbank reference NC_001422) and 7,670,616 M13 reads (mapping to Genbank reference X02513) was determined. To account for reads mapping at the circular junctions, 65 nucleotides of the first 5′ end of the maps were copied and added at the 3′ end of the maps. The DNA sequence 20 nucleotides upstream and downstream of the cut sites was extracted using a custom Python script, and the CARD1 cleavage motifs for ΦX174 and the M13 were determined separately using Weblogo3 (38), with basal nucleotide compositions determined by the compositions in each map (ΦX174 with A:24.0, C:21.4, G:23.3, T:31.3, and M13 with A:24.4, C:21.1, G:21.1, T:33.4). For the fragment size analysis, 8 nucleotides were removed from all the reads from the 3′ end pair mate by the “Trim Ends” option in the Geneious Bioinformatics Software platform (39). Using the STAR aligner (version 2.7.3) (40), 7,505,136 reads were successfully mapped to ΦX174, and 8,179,356 reads were successfully mapped to M13, using default arguments with the addition of --alignIntronMax 1 --alignMatesGapMax 6000 --peOverlapNbasesMin 5 --alignEndsProtrude 10 ConcordantPair.

The test system of data set [1] is ssRNA ladder, dsRNA ladder. The data set can be described thus: Degradation of ssRNA or dsRNA ladders. Format: biochemical. The following applies: 15 minutes. How it is done: (§1) The reactions were done in a reaction buffer (20 mM Tris-HCl, pH 7.5, 150 mM NaCl, 1 mM DTT, and 5 mM MnCl2, unless otherwise stated, with 250 nM CARD1 and 2.5 uM of cA4, with 2 μg M13 ssDNA (NEB) (FIG. 1b), 500 ng of non-linearized and linearized ΦX174 dsDNA (NEB) (FIGS. 1d, e, respectively) and 2 μg ΦX174 ssDNA (NEB) (FIG. 1a). cA4 and cA6 was obtained from Biolog Life Science Institute GmbH & Co. KG (Bremen, Germany). The reaction products were visualized by agarose gel electrophoresis. For the RNA oligo cleavage assay, 250 nM of a Cy3-labelled RNA oligo was added to the reaction. The reaction products were run on Mini-PROTEAN TBE-Urea precast gel (Bio-Rad), and visualized on a TYPHOON IMAGE SCANNER. For degradation of ssRNA or dsRNA ladders, 1 ug of either ssRNA ladder (NEB) or dsRNA ladder (NEB) was digested. The reaction products were visualized by agarose gel electrophoresis. At the indicated timepoints, all reaction were stopped by the addition of 25 mM of EDTA.

The subject of data set [2] is circular ΦX174 and M13 ssDNA. The data set can be described thus: In vitro DNA cleavage assay, agarose gel. The data set is classed as biochemical. How it is done: as §1
A further data set relates to S. aureus viability. Kind of data set: CARD1 toxicity assay (cfu enumeration). The data set is classed as cell-based, Staphylococcus aureus. How it is done: To measure the effect of CARD1 activity on S. aureus viability over time, colonies of S. aureus harbouring pTarget and the specified pCRISPR were launched in liquid culture overnight in triplicate. The next day, cells were diluted 1:100 and grown out for about an hour, and normalized for OD. One aliquot was taken from each culture, and then aTc was added to induce CRISPR targeting and CARD1 activity (to a concentration of 3 ng/ml in FIG. 4c or 125 ng/ml in FIG. 5c). At each timepoint, cell aliquots were removed, centrifuged, resuspended in media lacking aTc, and serial dilutions were plated on solid BHI agar plates with or without aTc. All viable cells should grow on the solid agar plates, but only targeting escapers (cells that recover due to mutations in pTarget or pCRISPR) should form CFUs on plates with aTc.

The subject of data set [3] is RNA oligos with either 15 adenines, uracils, or cytosines. The following applies: 5′ fluorophore and 3′ quencher; 15 A, U or C. How it is done: For determining the nucleotide cleavage preference of CARD1, the reaction was performed as above, with 1 uM of each RNA oligo (IDT). […] Fluorescent measurements were taken in a TECAN plate reader, using values from when the reaction was complete. 0.5 ul of RNaseI (Thermo Fisher Scientific), which cuts next to all RNA nucleotides, was used as a positive control.

B1: CARD1: cA4-activated ssDNA and ssRNA nuclease of Treponema succinifaciens, SEQ ID NO:1; N-terminal CARF domain, C-terminal REase domain (protein, listed as Treponema succinifaciens)
chain: MKETILVNLVSEQTIPNVQFIKWYFNKKQTPMKILLVSTKEMEQKEKSLFIKNALHFSDSFVEWETIHTDGNDISKTENILTDYFRDNEYKNIIVNITGGTKIMSLAAFDFFNNKPNTEIFYQPIGKELQELYPNKQKYDMFEVLSLKEYLDAHGISYKYDNECVKDWNYNKTVYDLCVADNRELIKGMIALQNNSYFNNVYKRKDFLDFTQIEEEKFIAINHPAATKENMIKILQIFGFDVSRIEHKHIRYITGGWFEEYVYQKICNEYHNVDEKNVALNVTIQKGNDKNELDVIYLDKDNKLHVIECKSFVDGNEGNRVLNDALYKLQAIIKSKFGLYVKQHLYTKSIIEKETPLNRAKEFGIDIKDGTQL
Take B1: the “phage titer in cultures of cells that express Cas10^HD” value in the data set on phage Φ12γ3 (ORF9 and ORF27 transcripts targeted) is recorded as “reduce the phage titer”. Moreover, the “phage propagation (pfu) at different times after infection” value in the data set on phage Φ12γ3 (ORF27 transcript of Φ12γ3 targeted) is recorded as “effectively eliminated Φ12γ3 from the culture”. The same molecule displayed an average product size in the data set with ΦX174 ssDNA (stated for both ΦX174 and M13 ssDNA degradation products) of roughly 150 nucleotides. Besides, the cleavage site preference entry with ΦX174 ssDNA (stated for both ΦX174 and M13 ssDNA degradation products, WebLogo) was “preferentially upstream of T(A/G) sites”. For the same molecule, in the data set on ΦX174 ssDNA (ΦX174, 5′ end mapping, 2 hours timepoint), the “cuts that occur at the 25 most frequent positions” value is 26.7%. The “average fragment length of degradation products” value with ΦX174 ssDNA (ΦX174, 2 hours timepoint) is listed as 163.6 nucleotides. In addition, the “degradation of single-stranded versus double-stranded RNA” value in data set [1] is reported as “Single-stranded RNA, but not double-stranded RNA, was degraded”. Besides, the “nuclease activity on ssDNA” value in data set [2] (ΦX174 and M13 ssDNA, smear of products) is reported as “cA4-activated, non-specific ssDNA nuclease”. Also, the “cation requirement of ssDNA degradation” value in data set [2] (ΦX174 ssDNA, with or without MnCl2) is on record as “required the addition of Mn cation”. Besides, the “fraction of colonies formed in the absence of aTc that come from bona fide dormant cells” value with S. aureus viability (compared with colonies resistant to aTc (escapers)) is recorded as “approximately half”. In addition, the “colony counts (viable cells) after CARD1 induction” value in the data set on S. aureus viability (three hours of target transcription, plated on media lacking aTc) is listed as “initial decrease in colony counts of an order of magnitude”. Moreover, the “degradation of homopolymer RNA oligos (sequence preference)” value in data set [3] is “able to efficiently degrade RNAs consisting of all three bases”.

The values above are taken from patent publication US12655405B2, “Sequence specific degradation of single-stranded polynucleotides with CARD1 nuclease” (The Rockefeller University, priority 2020, dated 2026).
